{"source": "patent US10195287B2", "about": "“Biologically active insulin derivatives” (Chemical & Biopharmaceutical Laboratories of Patras S.A., priority 2013, dated 2019)", "origin": "cited, not measured here", "biological_target": "human receptor (Homo sapiens, UniProt P06213)", "conditions": "compared with human insulin"}
{"substance": "Porcine insulin: animal insulin with a single amino acid variation from the human variety", "values": [{"measurement": "activity on the human receptor", "value": "approximately the same strength"}]}
{"substance": "bovine insulin: animal insulin that varies from human insulin by three amino acids", "values": [{"measurement": "activity on the human receptor", "value": "approximately the same strength"}]}
